Our source for the EC50, cAMP production (cAMP-inducible luciferase reporter) in HEK293 cells expressing GLP1R values is US20210309722A1.

The experiment concerns the target GLP-1 receptor. As to the kind of experiment: cell-based or functional assay.

With “native human GLP-1 (7-37) (from UniProt P01275 21-180) (peptide)”, the EC50, cAMP production (cAMP-inducible luciferase reporter) in HEK293 cells expressing GLP1R is 3.1 pM.
